Test results as given in publication PMC3905715 (Nature Communications, 2013).

B1: mouse Rspo2 Fu1–Fu2 (mRspo2Fu1–Fu2, N37 or I39-G144), His10 [mouse] / mouse ZNRF3 ectodomain (K53-L205), biotinylated, immobilised for SPR [modified: biotin at the C-terminal BirA recognition sequence; biotin at the C-terminal BirA … (parent complex)
chain 1: ICKGCLSCSKDNGCSRCQQKLFFFLRREGMRQYGECLHSCPSGYYGHRAPDMNRCARCRIENCDSCFSKDFCTKCKVGFYLHRGRCFDECPDGFAPLDETMECVEG
chain 2: KETAFVEVVLFESSPSGDYTTHTTGLTGRFSRAGAMLSAEGEIVQMHPLGLCNNNDEEDLYEYGWVGVVKLEQPELDPKPCLTVLGKAKRAVQRGATAVIFDVSENPEAIDQLNQGSEDPLKRPVVYVKGADAIKLMNIVNKQKVARARIQHL

Variants of: B1
Assay: SPR

| Kd [µM] | Variant |
| --- | --- |
| 0.68 | chain 2 E57K |

Variants of: B1
Assay: SPR
Remark: another data set of the same source

| Kd [µM] | Variant |
| --- | --- |
| 1.5 | chain 2 M46T |
| 5.6 | chain 2 Q45E |
